T1: N-terminal peptide of human GPRC5D (1-27), biotin-labelled (human, labeled with biotin (EZ-Link Sulfo-NHS-LC-Biotin))
T1 construct: Immobilised on an SA sensor at 20 nM; also called N-terminal peptide (Biotin) of GPRC5D
T1 peptide: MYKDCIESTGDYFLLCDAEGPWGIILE

B1: ET150-5 scFv (scFv, from another filing)
scFv: QSVLTQPPSASGTPGQRVTISCSGSRSNVGGNYVFWYQQVPGATPKLLIYRSNQRPSGVPDRFAGSKSGSSASLAISGLRSEDEADYYCATWDDSLSGFVFGTGTKVTVLGSRGGGGSGGGGSGGGGSLEMAEVQLVESGGGLVKPGGSLRLSCAASGFTFSDYYMSWIRQAPGKGLEWVSYISSSGSTIYYADSVKGRFTISRDNAKNSLYLQMNSLRAEDTAVYYCARGYGKAYDQWGQGTLVTVSS
B2: G5VHH1-hIgG1Fc (Fc fusion)
chain: EVQLVESGGGLVQPGGSLRLSCAASGRIFSRDAMGWFRQAPGKGRELVAAINSSGGNTYYPDSVEGRFTISRDNAKRMVYLQMNSLRAEDTAVYYCAARGVRWTSTTAYGYNYWGQGTQVTVSS
notes: also called G5VHH1 antibody; not shown: human IgG1 Fc fragment (hIgG1Fc) of vector p3.4-hIgG1Fc
B3: G5VHH2-hIgG1Fc (Fc fusion)
chain: EVQLVESGGGLVQPGGSLRLSCAASGLIFSRYVMGWFRQAPGKGRELVAFINSSGGSTNYPDSVEGRFTISRDNAKRMVYLQMNSLRAEDTAVYYCAASSRTSTTRGYNYWGQGTQVTVSS
notes: also called G5VHH2 antibody; not shown: human IgG1 Fc fragment (hIgG1Fc) of vector p3.4-hIgG1Fc
B4: 4A2 VHH (VHH)
VHH: EVQLVESGGGLVQPGGSLRLSCAASGFIFSRYDMGWFRQAPGKGRELVAVITWGGGSTYYPDSVEGRFTISRDNAKRMVYLQMNSLRAEDTAVYYCAARSASAYRTGRLEYNYWGQGTQVTVSS
B5: 4B3 VHH (VHH)
VHH: B3 chain
notes: also called G5VHH2
B6: 3B5 VHH (VHH)
VHH: EVQLVESGGGLVQPGGSLRLSCAASGFIFSRYGMGWFRQAPGKGRELVAAINWSDGTTYYPDSVEGRFTISRDNAKRMVYLQMNSLRAEDTAVYYCAADRRLRSQTGYDYWGQGTQVTVSS
notes: From the synthetic nanobody library NanoOri_1.0 (Caplacizumab backbone)
B7: 3E7 VHH (VHH)
VHH: B2 chain
notes: also called G5VHH1

Tests used:
[1] = target: human G protein-coupled receptor class C group 5 member D (GPRC5D) protein (human) (UniProt Q9NZD1); test: flow cytometry (FACS) on CHO-GPRC5D cells
[2] = target: human G protein-coupled receptor class C group 5 member D (GPRC5D) protein (human) (UniProt Q9NZD1); test: flow cytometry (FACS) on K562-GPRC5D cells
[3] = target: human G protein-coupled receptor class C group 5 member D (GPRC5D) protein (human) (UniProt Q9NZD1); test: flow cytometry (FACS) on MM1S myeloma cells
[4] = target: T2, human G protein-coupled receptor class C group 5 member D (GPRC5D) protein (human, UniProt Q9NZD1 1-345); test: flow cytometry on GPRC5D-CHO cells, anti-human IgG Fc secondary antibody
T2 construct: whole, on cells; The same protein on several cell lines; also called HuGPRC5D; CHO-GPRC5D
T2 sequence (Q9NZD1 whole entry): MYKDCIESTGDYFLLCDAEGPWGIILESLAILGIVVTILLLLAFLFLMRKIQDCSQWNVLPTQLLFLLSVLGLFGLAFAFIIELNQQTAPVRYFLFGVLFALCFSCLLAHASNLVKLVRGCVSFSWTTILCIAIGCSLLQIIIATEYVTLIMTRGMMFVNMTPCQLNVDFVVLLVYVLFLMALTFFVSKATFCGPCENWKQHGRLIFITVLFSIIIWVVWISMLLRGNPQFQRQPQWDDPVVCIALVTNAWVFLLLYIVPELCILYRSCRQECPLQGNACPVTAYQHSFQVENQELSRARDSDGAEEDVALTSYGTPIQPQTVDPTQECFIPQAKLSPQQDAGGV
Experimental: CHO-GPRC5D target cells were formulated with PBS buffer to a concentration of 1×10⁶ cells/mL, and added into a 96-well sharp-bottom plate (corning 3894) with 30 μL in each well. The antibodies to be detected, G5VHH1-hIgG1Fc and G5VHH2-hIgG1Fc were formulated with PBS buffer to a concentration of 30 μg/mL, and subject to 3-fold dilution to form a gradient of 8 concentrations (with the minimum concentration of 0). The formulated antibodies with different concentrations were mixed well with the plated target cells at 30 μL/well, and incubated in a refrigerator at 4° C. for 1 hr. 150 μL of buffer was added into each well, and centrifuged at 300 g for 5 min. The supernatant was then discarded, and the cells were additionally washed once. Goat-anti-human IgG (Fc-specific, ab98593) fluorescent secondary antibody was formulated with buffer at a ratio of 1:200, added into each well in an amount of 30 μl and mixed with the cells uniformly, and incubated in the refrigerator at 4° C. for 30 min. 170 μL of buffer was added to each well, and centrifuged at 300 g for 5 min. The supernatant was then discarded and the cells were additionally washed once. 35 μL of buffer was added into each well, mixed well, and the mixture was detected by iQue Screener Flow Cytometer (available from IntelliCyt Company). […]

[5] = target: T1, N-terminal peptide of human GPRC5D …; test: BLI (Octet RED384), biotinylated peptide on SA sensor; fit R2 0.7914, model called not credible
Text: (§1) The G5VHH1 and G5VHH2 antibody sequences were cloned into an eukaryotic vector containing p3.4-hIgG1Fc of a human IgG1 Fc fragment (hIgG1Fc) sequence, facilitating the recombinant expression of GPRC5D VHH-hIgG1Fc to give a recombinant protein which was then purified to determine the affinity of G5VHH1-hIgG1Fc and G5VHH2-hIgG1Fc to the affinity N-terminal peptide (Biotin) of GPRC5D. Briefly, the N-terminal peptide of human GPRC5D (>sp|Q9NZD1|1-27: […]) protein was labeled with biotin (EZ-Link Sulfo-NHS-LC-Biotin, Pierce, 21327). By the biolayer interferometry (BLI) technique, the binding kinetics between antigen and antibody was analyzed using the molecular interaction analyzer fortebiooctetRED384 (PALL) (wherein both antigen and antibody were diluted with a PBS buffer containing 0.1% BSA and 0.02% Tween 20). The biotin-conjugated antigen with a concentration of 20 nM was immobilized to an SA sensor, and bound for 3 min; then bound with double-diluted antibody solution (G5VHH1 and G5VHH2 antibodies) for 5 min; and finally dissociated for 5 min. The obtained results were analyzed by Octet Data Analysis 9.0 software (fortebio) to calculate the binding strength between the antigen and the antibody, thereby giving the KD value, Ka (1/Ms) value and Kd (1/s) value. […]

[6] = target: T1, N-terminal peptide of human GPRC5D …; test: BLI (Octet RED384), biotinylated peptide on SA sensor, antibody in solution
Text: as §1

[7] = target: T2, human G protein-coupled receptor class …; test: flow cytometry (FACS) on CHO-GPRC5D cells
[8] = target: T2, human G protein-coupled receptor class …; test: flow cytometry (FACS) on K562-GPRC5D cells
[9] = target: T2, human G protein-coupled receptor class …; test: flow cytometry (FACS) on MM1S myeloma cells
Experimental: The target cells (i.e., MM1S myeloma cells) were formulated with buffer to a concentration of 1×10⁶ cells/mL, and added into a 96-well sharp-bottom plate (corning 3894) with 30 μL in each well. The antibody to be detected was formulated with buffer to a concentration of 10 μg/mL, and subject to 3-fold dilution to form a gradient of 8 concentrations. The formulated antibodies of different concentrations were mixed well with the plated target cells at 30 μL/well, and incubated in a refrigerator at 4° C. for 1 hr. 150 μL of buffer was added into each well, and centrifuged at 300 g for 5 min. The supernatant was discarded, and then the cells were loosened up by shaking, and additionally washed once. The fluorescent secondary antibody (ab98593) was formulated with buffer at a ratio of 1:200, added into each well in an amount of 30 μl and mixed with the cells uniformly, and incubated in the refrigerator at 4° C. for 30 min. 150 μL of buffer was added to each well, and centrifuged at 300 g for 5 min. The supernatant was discarded, and then the cells were loosened up by shaking, and additionally washed once. 35 μL of buffer was added into each well, mixed well, and the mixture was measured by a flow cytometer. Of those, ET150-5scFv is a positive control antibody with the sequence found in the patent application CN107428829A, 3B5VHH has an amino acid sequence as set forth in SEQ ID NO: 15, 3E7VHH has an amino acid sequence as set forth in SEQ ID NO: 19, 4A2VHH has an amino acid sequence as set forth in SEQ ID NO: 24, and 4B3VHH has an amino acid sequence as set forth in SEQ ID NO: 30.

EC50 [7] | EC50 [8] | EC50 [9] | other results | Binder
– | – | – | EC50 [1]: 0.249 µg/mL; EC50 [2]: 0.431 µg/mL; EC50 [3]: 0.911 µg/mL | B1
– | – | – | EC50 (read off the curve) [4]: ~1 µg/mL; binding result [5]: no binding | B2
– | – | – | Kd [6]: 76.9 nM; EC50 (read off the curve) [4]: ~0.4 µg/mL | B3
0.0687 µg/mL | 0.164 µg/mL | 0.0195 µg/mL | – | B4
0.18 µg/mL | 0.216 µg/mL | 0.658 µg/mL | – | B5
0.103 µg/mL | 0.207 µg/mL | 0.0439 µg/mL | – | B6
0.426 µg/mL | 0.576 µg/mL | 0.286 µg/mL | – | B7

— patent US20250057950A1 (ORICELL THERAPEUTICS, published 2025)
